The values below come from patent publication US20100255011A1 (University of Washington, published 2010).

Assay [1] deals with soluble recombinant CD46 (sCD46) (human) (UniProt P15529). In words: SPR, Biacore T100; biotinylated knob on streptavidin chip, sCD46 injected.
For assay [2] the target is unchanged. In words: SPR, ratio of KDs. In general terms: SPR reads the build-up and loss of mass on a sensor chip optically.
For assay [3], the target named is CD46 on the surface of human cells (HeLa, Raji, PBMC and others) (human) (UniProt P15529). In words: cell-based or functional assay.
Assay [4] addresses T1, CD46 on the surface of human cells (HeLa, Raji, PBMC and others) (human, UniProt P15529 35-376).
T1 sequence: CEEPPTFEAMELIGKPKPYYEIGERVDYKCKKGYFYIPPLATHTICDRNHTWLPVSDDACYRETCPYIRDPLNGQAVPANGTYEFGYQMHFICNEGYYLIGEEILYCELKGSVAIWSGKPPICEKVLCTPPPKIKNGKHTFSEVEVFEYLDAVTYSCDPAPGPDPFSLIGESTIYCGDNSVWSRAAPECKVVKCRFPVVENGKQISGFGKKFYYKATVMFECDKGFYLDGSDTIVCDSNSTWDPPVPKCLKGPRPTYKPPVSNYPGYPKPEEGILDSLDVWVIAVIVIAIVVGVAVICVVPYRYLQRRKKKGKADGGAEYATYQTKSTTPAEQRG
In words: cell-based or functional assay.

Assay [5] addresses T2, soluble recombinant CD46 (sCD46) (human, UniProt P15529 35-343).
T2 construct: Soluble form produced as described in Wang et al. 2007; also called soluble CD46
T2 sequence: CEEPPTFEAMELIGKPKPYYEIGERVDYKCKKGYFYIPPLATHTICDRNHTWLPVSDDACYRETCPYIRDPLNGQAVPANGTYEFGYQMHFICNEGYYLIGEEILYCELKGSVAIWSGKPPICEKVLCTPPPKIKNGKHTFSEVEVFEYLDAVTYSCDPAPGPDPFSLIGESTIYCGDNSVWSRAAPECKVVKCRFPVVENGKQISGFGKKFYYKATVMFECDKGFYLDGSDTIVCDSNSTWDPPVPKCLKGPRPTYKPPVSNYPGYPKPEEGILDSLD
As to the kind of experiment: SPR, Biacore T100; biotinylated knob on streptavidin chip, sCD46 injected.

Assay [6] has as its target T2, soluble recombinant CD46 (sCD46). In words: SPR, ratio of KDs.

For “Ad35 fiber knob mutant Asn217Asp + Thr245Pro + Ile256Leu”, in assay [1], the Kd (as a rule, a measure of binding affinity in units of concentration) worked out at 4.82 nM; the koff (usually the rate constant with which the complex falls apart) came out at 0.0097 s⁻¹; the kon (as a rule, the second-order rate constant of association) worked out at 2.25e+06 M⁻¹ s⁻¹.

With Ad35 fiber knob mutant Asp207Gly, in assay [1], the Kd turned out to be 1.77 nM, the koff came out at 0.0034 s⁻¹ and the kon stood at 3.51e+06 M⁻¹ s⁻¹. In addition, in assay [2], the fold higher affinity than the wild-type fiber knob protein worked out at 8.3 fold.

Consider “Ad35 fiber knob mutant Asp207Gly + Thr226Ala”, for which, in assay [1], the Kd came out at 1.41 nM, the koff was 0.0026 s⁻¹ and the on-rate constant (kon) came out at 1.97e+06 M⁻¹ s⁻¹.

Turning to “Ad35 fiber knob mutant Asp207Gly + Thr245Ala + Ile256Leu”, in assay [1], the Kd stood at 0.92 nM, the off-rate constant (koff) was 0.0018 s⁻¹ and the kon is 1.96e+06 M⁻¹ s⁻¹.

As for Ad35 fiber knob mutant Ile256Leu, in assay [1], the Kd was 11 nM, the koff is 0.0236 s⁻¹ and the kon turned out to be 2.13e+06 M⁻¹ s⁻¹. Moreover, the fold higher affinity than the wild-type fiber knob protein in assay [2] is 1.3 fold.

Ad35 fiber knob mutant Thr245Ala: in assay [1], the Kd is 7.64 nM, the koff was determined as 0.0173 s⁻¹ and the kon came to 2.25e+06 M⁻¹ s⁻¹. Moreover, the fold higher affinity than the wild-type fiber knob protein in assay [2] came to 1.9 fold.

In the case of “mouse anti-human CD46 antibody, clone MEM-258 (AbD Serotec)”, in assay [3], the level of CD46 on the surface of HeLa cells (flow cytometry), decline stood at 30% and the viability of Raji cells with NHS (alone or with daclizumab), decline was 30%.

B1: wild-type Ad35 fiber knob protein (other)
chain: HHHHHHGDICIKDSINTLWTGINPPPNCQIVENTNTNDGKLTLVLVKNGGLVNGYVSLVGVSDTVNQMFTQKTANIQLRLYFDSSGNLLTDESDLKIPLKNKSSTATSETVASSKAFMPSTTAYPFNTTTRDSENYIHGICYYMTSYDRSLFPLNISIMLNSRMISSNVAYAIQFEWNLNASESPESNIATLTTSPFFFSYITEDDN
notes: Recombinant, made in E. coli, homotrimer; Biotinylated (EZ-Link Sulfo-NHS-LC-Biotin) for SPR; also called Ad35K; wild-type Ad35K
For the molecule B1, in assay [4], the “killing of Raji cells by rituximab/NHS, increase against rituximab/NHS only” value is around 2 fold. Also, in assay [5], the Kd stood at 14.6 nM, the koff came out at 0.0234 s⁻¹ and the kon was 1.52e+06 M⁻¹ s⁻¹.

B2: mutant Ad35 fiber knob protein with Asp207Gly and Thr245Ala substitutions (Ad35K++) (other)
chain: HHHHHHGDICIKDSINTLWTGINPPPNCQIVENTNTNDGKLTLVLVKNGGLVNGYVSLVGVSDTVNQMFTQKTANIQLRLYFDSSGNLLTGESDLKIPLKNKSSTATSETVASSKAFMPSTTAYPFNTATRDSENYIHGICYYMTSYDRSLFPLNISIMLNSRMISSNVAYAIQFEWNLNASESPESNIATLTTSPFFFSYITEDDN
notes: Recombinant, E. coli, spontaneously forms trimers; Biotinylated for SPR; also called Asp207Gly + Thr245Ala; Ad35K++ polypeptide
For B2, in assay [4], the “decrease of mean CD46 fluorescence intensity on PBMCs” value was determined as 1.97 fold; the “decrease of mean CD46 fluorescence intensity on Raji cells” value stood at 7.54 fold; the “fold decrease in GFP expression after Ad35-GFP infection of HeLa cells pre-incubated 72 hours earlier, against Ad35K-279” value was 1000 fold; the “killing of Raji cells by rituximab/NHS, increase against rituximab/NHS only” value is around 10 fold. Further, the “fold higher affinity than the wild-type Ad35” value in assay [6] amounted to 23.2 fold. In addition, in assay [5], the dissociation constant (Kd) came to 0.63 nM, the koff was 0.0017 s⁻¹ and the on-rate (kon) was determined as 2.48e+06 M⁻¹ s⁻¹.
